Experimental data: patent US10308692B2, “Variants of GAL2 transporter and their uses” (Johann Wolfgang Goethe-Universität Frankfurt, priority 2014, dated 2019)
Numbering of substitutions follows the chain as printed. Names and notes keep the numbering of the source.

B1: N376Y + M435I: Gal2 variant with amino acid substitutions N376Y and M435I (protein, UniProt P13181 1-574, looked up, variant N376Y M435I)
Galactose transporter: MAVEENNMPVVSQQPQAGEDVISSLSKDSHLSAQSQKYSNDELKAGESGSEGSQSVPIEIPKKPMSEYVTVSLLCLCVAFGGFMFGWDTGTISGFVVQTDFLRRFGMKHKDGTHYLSNVRTGLIVAIFNIGCAFGGIILSKGGDMYGRKKGLSIVVSVYIVGIIIQIASINKWYQYFIGRIISGLGVGGIAVLCPMLISEIAPKHLRGTLVSCYQLMITAGIFLGYCTNYGTKSYSNSVQWRVPLGLCFAWSLFMIGALTLVPESPRYLCEVNKVEDAKRSIAKSNKVSPEDPAVQAELDLIMAGIEAEKLAGNASWGELFSTKTKVFQRLLMGVFVQMFQQLTGNNYFFYYGTVIFKSVGLDDSFETSIVIGVVYFASTFFSLWTVENLGHRKCLLLGAATMMACMVIYASVGVTRLYPHGKSQPSSKGAGNCIIVFTCFYIFCYATTWAPVAWVITAESFPLRVKSKCMALASASNWVWGFLIAFFTPFITSAINFYYGYVFMGCLVAMFFYVFFFVPETKGLSLEEIQELWEEGVLPWKSEGWIPSSRRGNNYDLEDLQHDDKPWYKAMLE
B2: Gal2 WT: wild-type protein Gal2 of S. cerevisiae CEN.PK2-1C, SEQ ID NO: 1, 574 amino acids, galactose transporter (protein, UniProt P13181 1-574, looked up)
Galactose transporter: B1 Galactose transporter with Y376N, I435M
B3: N376F: Gal2 variant with amino acid substitution N376F (protein, UniProt P13181 1-574, looked up, variant N376F)
Galactose transporter: B1 Galactose transporter with Y376F, I435M
B4: Gal2_M435I: M435I exchange introduced into wild-type Gal2 (protein, UniProt P13181 1-574, looked up, variant M435I)
Galactose transporter: B1 Galactose transporter with Y376N
B5: N376F + M435I: Gal2 variant with amino acid substitutions N376F and M435I (protein, UniProt P13181 1-574, looked up, variant N376F M435I)
Galactose transporter: B1 Galactose transporter with Y376F
B6: N376Y: Gal2 variant with amino acid substitution N376Y (protein, UniProt P13181 1-574, looked up, variant N376Y)
Galactose transporter: B1 Galactose transporter with I435M

Legend:
Type in all cases: cell-based, Saccharomyces cerevisiae
[1] = test system: EBY.VW4000; assay: Xylose uptake assay with radioactively labelled xylose; details: for xylose uptake rate compared to wild type: FIGS. 7 and 8; for Vmax: xylose uptake, Michaelis-Menten fit (GraphPad Prism), three replicates, figures give velocity in nmol xylose per minute per milligram cell dry mass
Excerpt: FIG. 7: Xylose uptake assay of Gal2_N376Y, N376Y+M435I and Gal2 wild type in EBY.VW4000 (three independent replicates). The uptake velocity is shown in nmol xylose per minute per milligram cell dry mass.
FIG. 8: Xylose uptake assay of Gal2_N376F, N376F+M435I and Gal2 wild type in EBY.VW4000 (three independent replicates). The uptake velocity is shown in nmol xylose per minute per milligram cell dray mass.
Sugar uptake assays were done as described by Bisson et al. (Bisson and Fraenkel, 1983) with modifications according to Walsh et al. (Walsh et al., 1994).
Transformants of strain EBY.VW4000 were grown in selective YEPE to an OD of 1.1-1.6, harvested by centrifugation and washed twice in ice-cold uptake-buffer (RT, 3 min, 3000×g). Cells were kept on ice from here on. The cell pellet was resuspended in ice-cold uptake-buffer to a concentration of 60 mgww/ml and aliquoted to 110 μl. One cell suspension aliquot and one sugar solution were incubated in a water bath at 30° C. for 4-5 min. 100 μl of the cell suspension were pipetted to the sugar solution (50 μl), mixed briefly by pipetting and incubated for 5 (D-[U-^14C]-glucose) or 20 sec (D-[1-^14C]-xylose). The uptake reaction was stopped by transferring 100 μl of the mixture into 10 ml ice-cold quenching-buffer, which was immediately filtered through a Durapore membrane filter (0.22 μm pore size, Millipore). The filter was washed twice with 10 ml ice-cold quenching-buffer, transferred to a scintillation vial containing 4 ml scintillation cocktail (Rotiszint eco plus, Roth) and shaken thoroughly. Additionally to this filter sample (cpmfilter), 10 μl of each reaction were transferred directly to a scintillation vial with 4 ml scintillation cocktail for determination of the total counts in the reaction (cpmtotal). To determine a value for sugar that is bound unspecifically to the cell surface or the filter (cpmblank) a few samples of 33,3 μl sugar solution and 66,6 μl cell suspension were mixed in 10 ml icecold quenching buffer and treated as described above. Radioactivity of all vials was analysed in an Wallac 1409 liquid scintillation counter.
Stocksolutions of 2M, 500 mM or 20 mM glucose or xylose (in H2O) were used to prepare the sugar solutions for the assays (threefold of the desired concentration in the uptake reaction (S, substrate concentration), 50 μl aliquots). Uptake was measured at sugar concentrations 0.2, 1, 5, 25 and 100 mM for glucose and 1, 5, 25, 66, 100, 200 and 500 mM for xylose. Inhibition of xylose uptake by glucose was measured at 25, 66 and 100 mM xylose with additional 25 and 100 mM unlabelled glucose. Sugar solutions contained 0.135 to 0.608 μCi of D-[U-^14C]-glucose (290-300 mCi/mmol) or D-[1-^14C]-xylose (55 mCi/mmol) (American Radiolabeled Chemicals Inc., St. Louis, Mo., USA).
The amount of sugar (Asugar in nmol) taken up during the incubation time (t, in seconds) at a certain sugar concentration (S, in mM): Asugar=((cpmsample−cpmblank)/(cpmtotal·10))·S·100 μl
Transport velocity (in nmol·min^−1·mgww^−1) calculated per milligrams of cell (m, in mgww): V=(Asugar·60 s)/(t·m)
Calculation of Km (Michaelis constant), Vmax (maximal initial uptake velocity) and Ki (inhibitor constant for competitive inhibition) was done by nonlinear regression analysis and global curve fitting in Prism 5 (GraphPad Software, Inc.) with values of three independent measurements.
Xylose uptake of Gal2_N376F, N376F+M435I, N376Y und N376Y+M435I was characterized with a sugar uptake assay. The relevant plasmids were transformed in strain EBY.VW4000. Cells were cultivated in SCM-ura until they reached the exponential growth phase (OD600˜0.6). Then cells were harvested, concentrated to the same OD600 (OD600 35-40), separated into different aliquots and stored on ice.
Three uptake assays (in tripicates) were performed with different concentrations of radioactively labelled xylose. Data were collected and fittet with GraphPad Prism according to Michaelis Menten (FIGS. 7 and 8).

[2] = test system: AFY10; assay: Growth test in liquid media and fermentation; details: for xylose concentration of the supernatant decreased during the fermentation to: HPLC
Experimental: The strain AFY10, which was transformed with YEp181_pHXT7-opt.XI_Clos and p426H7-GAL2_wt (WT) or p426H7-GAL2_ep3.1 (ep3.1) or p426-GAL2_N376Y+M435I (M435I), was incubated in 150 ml SCE-ura-leu+G418. This was the preculture which was used to start the fermentation with an OD600 of 0.6 in 30 ml SC-ura-leu with 0.6% xylose (A) or with 0.6% xylose with 2% glucose (B). The cultures were incubated at 180 rpm and 30° for seven days. Samples were taken for growth measurements as well as metabolite analysis.
For analysis of metabolites cell-free samples (5-10 min, 4° C., 16000×g) were mixed with 1/9 volumes of 50% (w/v) 5-sulfosalicylic acid and centrifuged (5-10 min, 4° C., 16000×g). The supernatant was analyzed in an UHPLC+ system by Thermo Scientific (Dionex UltiMate 3000) equipped with a HyperREZ XP Carbohydrate H^+8 μm column and a refractive index detector (Thermo Shodex RI-101). Separation was carried out at column temperature of 65° C. with 5 mM sulfuric acid as mobiles phase with a flow rate of 0.6 ml/min. Chromeleon 6.80 software was used to control the system and to analyze the data. Five standards (mixtures of D-glucose, D-xylose, xylitol, acetate, glycerol and ethanol with concentrations of 0.01-3% (w/v)) were analyzed for quantification of the different compounds.
To investigate the growth difference and the xylose consumption of the mutants in comparison to the wild type and the error prone mutant, an anaerobic growth test in liquid media was carried out. For this purpose AFY10 cells were co-transformed with the vector with the respective GAL2 sequence and YEp181_pHXT7-opt.XI_Clos and inoculated in SCE-ura-leu+G418 to have an OD600 of 0.6 in 30 ml SC-ura-leu with 0.6% xylose or with 0.6% xylose with 2% glucose. The OD600 was measured regularly during five days, the growth rate μ was determined and the metabolites of the samples were examined, whereby the samples were diluted 1:5 for this reason.

[3] = test system: AFY10; assay: Serial dilution drop test on xylose and xylose-glucose media; details: for growth on low xylose: 0.2% (2 g/l) xylose; for growth on high xylose: 2% (20 g/l) xylose, compared within the same drop test
Experimental: The transformants were cultivated in 5 ml SCE-ura-leu with 2% ethanol at 30°, washed with water and adjusted to an OD600 of 1. Thereof it followed a serial dilution. 5 μl were dropped onto the respective media and it was incubated for five days at 30°. As a control for the dilution SCE-ura-leu with 2% ethanol was taken. The cells of the mutated transporters were dropped onto SCX-ura-leu with 0.2% and 2% D-xylose, as well as SC-ura-leu with 1% D-xylose with 4% D-glucose and SC-ura-leu with 0.2% D-xylose and 2% D-glucose to test their functionality. Furthermore the wild type and Gal2_ep3.1 were used for comparison.
FIG. 5: Drop test of Gal2_M435I in AFY10 after five days at 30°. Several dilutions were dropped from left to right (undiluted, 1:10, 1:100, 1:1000).
FIG. 6: Drop test of Gal2_N376F, N376F+M435I and N376Y+M435I in AFY10 after five days at 30°. Several dilutions were dropped from left to right (undiluted, 1:10, 1:100, 1:1000). But on 20 g/l xylose the order was different (undiluted, 1:100, 1:1000, 1:10).
(§1) For easy comparison of growth of different S. cerevisiae strains under various growth conditions a serial dilution spot assay was performed. Cells were grown in liquid culture to exponential phase in appropriate medium, collected by centrifugation (2000×g, 2 min), washed twice with sterile water and then resuspended to an OD600 of 1.0 in selective medium without carbon source. From this cell suspension a ten-fold serial dilution was prepared in selective medium (four dilution steps). 6 μl of each cell suspension were spotted on plates of the media to be examined and allowed to dry. Plates were incubated at 30° C.
To characterize the different constructs which all were verified by sequencing they were transformed together with vector YEp181_pHXT7-optXI_Clos into competent AFY10 cells and drop tests were performed.

[4] = test system: EBY.VW4000; assay: Serial dilution drop test on glucose and galactose media
Experimental: The transformants were cultivated in 5 ml SCM-ura with 20 g/l maltose at 30°, washed with water and adjusted to an OD600 of 1. Thereof it followed a serial dilution. 5 μl were dropped onto the respective media and it was incubated for three days at 30°. As a control for the dilution SCM-ura with 20 g/l maltose was taken. The cells of the mutated transporters were dropped onto SCD-ura with 0.2% and 2% glucose, as well as SCG-ura with 0.2% and 2% D-galactose to test their functionality. Furthermore the wild type, Gal2_ep3.1 and Gal2_N376Y were used for comparison.
FIG. 4: Drop test of Gal2_M435I in EBY.VW4000 after three days at 30°. Several dilutions from left to right were dropped (undiluted, 1:10, 1:100, 1:1000).
as §1

[5] = start 0.6% xylose with 2% glucose
[6] = drop test, FIG. 4, versus wild-type Gal2

Molecule	xylose uptake rate compared to wild type [1]	Vmax [1]	xylose concentration of the supernatant decreased during the fermentation to [2, 5] [%]	growth on low xylose [3]	growth on high xylose [3]	other results
B1	strongly improved	99.61	0.37	better growth	best growth	growth rate ([2]; 0.6% xylose): 0.014 h⁻¹; growth rate ([2]; 0.6% xylose with 2% glucose): 0.015 h⁻¹; xylose concentration of the supernatant decreased during the fermentation to ([2]; start 0.6% xylose): 0.35%; growth on low xylose with glucose ([3]; 0.2% xylose with 2% glucose): better growth; growth on xylose with glucose ([3]; 1% xylose with 4% glucose (10 g/l xylose plus 40 g/l glucose)): best growth
B2	–	63.43	0.53	best growth	–	OD600 tend ([2]; [Xyl+Glu]: 0.6% xylose with 2% glucose): 0,52; OD600 tend ([2]; [Xyl]: 0.6% xylose without glucose): 0,86
B3	–	25.86	–	better than that of Gal2_N376Y+M435I	–	–
B4	–	–	–	No growth	slow growth	growth on xylose-glucose mixtures ([3]; FIG. 5): No growth; uptake of xylose ([3]; drop test, FIG. 5): reduced; growth on glucose ([4]; 2 g/l and 20 g/l glucose): much slower; uptake of galactose [4, 6]: no effect; uptake of glucose [4, 6]: strongly reduced
B5	reduced uptake rate	13.81	–	grow the best	–	–
B6	strong reduction	11.92	–	–	–	–
